Drawing on article PMC2836553, this text covers Kd for 4 molecules.

Where two headings read alike, the source gives them in different places.

Holding throughout (assay): FRET
For data set [1], the target named is T1, XPF-Δnuc (HhH2 domain) (Sulfolobus solfataricus P2, UniProt Q7LXL5 =M+148-233, internal_change).
T1 sequence: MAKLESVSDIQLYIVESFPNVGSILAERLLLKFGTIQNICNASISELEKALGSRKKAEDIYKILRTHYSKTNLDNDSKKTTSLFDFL

Data set [2] addresses T2, XPF-wt (Saccharolobus (Sulfolobus) solfataricus, UniProt Q7LXL5 1-233).
T2 sequence: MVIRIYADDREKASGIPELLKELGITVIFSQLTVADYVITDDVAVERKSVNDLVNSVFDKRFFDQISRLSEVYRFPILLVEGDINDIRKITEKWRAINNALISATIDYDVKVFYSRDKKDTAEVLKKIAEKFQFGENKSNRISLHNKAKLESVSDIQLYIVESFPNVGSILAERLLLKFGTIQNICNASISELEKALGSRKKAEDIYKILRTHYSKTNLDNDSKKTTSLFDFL

The target of data set [3] is T3, XPF-wt;PCNA heterotrimer (Saccharolobus (Sulfolobus) …, UniProt Q7LXL5;P57766;Q97Z84;P57765 1-233;1-249;1-245;1-244, |).
T3 sequence 1: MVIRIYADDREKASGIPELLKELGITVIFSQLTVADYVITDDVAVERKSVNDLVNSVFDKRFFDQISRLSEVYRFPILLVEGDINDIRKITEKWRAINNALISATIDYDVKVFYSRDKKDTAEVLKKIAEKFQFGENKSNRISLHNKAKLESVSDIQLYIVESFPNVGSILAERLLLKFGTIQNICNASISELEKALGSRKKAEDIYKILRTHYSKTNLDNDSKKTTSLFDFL
T3 sequence 2: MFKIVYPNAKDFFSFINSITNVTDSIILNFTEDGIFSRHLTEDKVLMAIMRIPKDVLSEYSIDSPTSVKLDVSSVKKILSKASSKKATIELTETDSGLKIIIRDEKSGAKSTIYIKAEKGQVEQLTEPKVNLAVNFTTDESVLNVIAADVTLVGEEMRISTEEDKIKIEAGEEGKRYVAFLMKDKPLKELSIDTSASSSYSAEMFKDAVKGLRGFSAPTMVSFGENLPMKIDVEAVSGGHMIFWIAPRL
T3 sequence 3: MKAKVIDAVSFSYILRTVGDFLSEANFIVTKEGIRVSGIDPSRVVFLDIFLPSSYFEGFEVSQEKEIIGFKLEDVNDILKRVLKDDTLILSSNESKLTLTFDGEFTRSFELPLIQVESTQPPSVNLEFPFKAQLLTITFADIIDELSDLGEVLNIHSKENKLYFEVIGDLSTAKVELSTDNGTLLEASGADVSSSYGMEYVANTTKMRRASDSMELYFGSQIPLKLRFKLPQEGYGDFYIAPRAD
T3 sequence 4: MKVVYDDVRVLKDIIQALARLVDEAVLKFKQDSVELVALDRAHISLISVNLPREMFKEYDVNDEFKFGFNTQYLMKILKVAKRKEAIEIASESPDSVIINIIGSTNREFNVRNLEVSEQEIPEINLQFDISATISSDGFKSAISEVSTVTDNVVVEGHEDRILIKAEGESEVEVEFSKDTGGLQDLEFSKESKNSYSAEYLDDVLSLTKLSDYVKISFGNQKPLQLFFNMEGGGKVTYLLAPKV

For data set [4], the target named is T4, XPF-Δnuc (HhH2 domain);PCNA heterotrimer (Sulfolobus solfataricus P2;Sulfolobus …, UniProt Q7LXL5;P57766;Q97Z84;P57765 =M+148-233;1-249;1-245;1-244, internal_change|).
T4 sequence 1: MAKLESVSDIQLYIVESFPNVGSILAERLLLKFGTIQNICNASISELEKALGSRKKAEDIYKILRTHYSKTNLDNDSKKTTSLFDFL
T4 sequence 2: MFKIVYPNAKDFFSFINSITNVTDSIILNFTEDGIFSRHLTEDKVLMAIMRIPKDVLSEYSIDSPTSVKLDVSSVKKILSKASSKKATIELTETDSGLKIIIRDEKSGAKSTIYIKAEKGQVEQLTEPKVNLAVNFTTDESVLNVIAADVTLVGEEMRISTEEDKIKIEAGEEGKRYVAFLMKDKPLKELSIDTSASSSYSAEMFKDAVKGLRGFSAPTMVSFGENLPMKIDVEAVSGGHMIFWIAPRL
T4 sequence 3: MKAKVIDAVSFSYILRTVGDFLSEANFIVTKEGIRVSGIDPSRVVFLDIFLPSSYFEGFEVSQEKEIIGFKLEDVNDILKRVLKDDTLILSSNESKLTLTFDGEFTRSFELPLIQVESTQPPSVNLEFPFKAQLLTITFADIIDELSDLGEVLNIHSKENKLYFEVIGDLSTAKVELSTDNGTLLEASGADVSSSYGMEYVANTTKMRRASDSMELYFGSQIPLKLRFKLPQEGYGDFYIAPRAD
T4 sequence 4: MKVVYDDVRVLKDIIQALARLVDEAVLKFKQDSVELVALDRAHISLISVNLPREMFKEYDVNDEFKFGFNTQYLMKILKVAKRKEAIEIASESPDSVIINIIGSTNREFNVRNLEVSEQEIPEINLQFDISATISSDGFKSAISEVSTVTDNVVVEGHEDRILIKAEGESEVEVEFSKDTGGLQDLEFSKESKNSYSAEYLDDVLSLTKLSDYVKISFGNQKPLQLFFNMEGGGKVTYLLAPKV

Data set [5] addresses T5, XPF-ΔPIP (Δ6 XPF) (Sulfolobus solfataricus, UniProt Q7LXL5 1-227).
T5 sequence: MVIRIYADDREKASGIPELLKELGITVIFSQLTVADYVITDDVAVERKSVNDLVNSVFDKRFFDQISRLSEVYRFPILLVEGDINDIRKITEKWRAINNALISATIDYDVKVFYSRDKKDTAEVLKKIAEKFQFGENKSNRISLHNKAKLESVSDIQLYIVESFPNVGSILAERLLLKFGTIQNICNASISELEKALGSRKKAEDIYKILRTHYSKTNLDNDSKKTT

The target of data set [6] is T2, XPF-wt. This is another data set of the same source.
Data set [7] deals with T5, XPF-ΔPIP (Δ6 XPF). This is another data set of the same source.
Data set [8] concerns the target T1, XPF-Δnuc (HhH2 domain). This is another data set of the same source.
Data set [9] deals with T3, XPF-wt;PCNA heterotrimer. This is another data set of the same source.
The target in data set [10] is T5, XPF-ΔPIP (Δ6 XPF). The source holds these as a separate data set.

The term Kd denotes the constant that tells how readily two partners part at equilibrium. The low end stands for higher affinity, the high end for lower affinity.

B1: 3' flap, three vectors (global fit) (structured_DNA)
DNA 1: AGCCCGACAGCAGTCAGAGCTTGCTAGGACGGACGGT
DNA 2: ACCGTCCGTCCTAGCAAGCATTTTTTT
DNA 3: TCTGACTGCTGTCGGGCT
modifications: dye positions as in Flap-12, Flap-13 and Flap-23
As for B1, the dissociation constant (Kd) was found to be 8 ± 1 µM in data set [1]; 5.3 ± 0.6 µM in [2]; 0.06 ± 0.01 µM in [3]; 0.11 ± 0.01 µM in data set [4]; 3.1 ± 0.5 µM in [5].

B2: Flap-12 (structured_DNA)
DNA 1: AGCCCGACAGCAGTCAGAGCTTGCTAGGACGGACGGT
DNA 2: ACCGTCCGTCCTAGCAAGCATTTTTTT
DNA 3: TCTGACTGCTGTCGGGCT
modifications: internal fluorescein-dT at T9 of B strand; 3' amino modifier on B strand
Take B2: the values for the Kd in data set [6] and in data set [7] were 2.6 ± 0.4 µM and 1.6 ± 0.6 µM, respectively.

B3: Flap-13 (structured_DNA)
DNA 1: AGCCCGACAGCAGTCAGAGCTTGCTAGGACGGACGGT
DNA 2: ACCGTCCGTCCTAGCAAGCATTTTTTT
DNA 3: TCTGACTGCTGTCGGGCT
modifications: amino-C6-dT at T9 of B strand; internal fluorescein-dT at T10 of C strand
Consider B3, for which the values for the Kd in data set [8], in [6] and in data set [9] were 8 ± 2 µM, 9.2 ± 3 µM and 0.06 ± 0.01 µM, respectively.

B4: Flap-23 (structured_DNA)
DNA 1: AGCCCGACAGCAGTCAGAGCTTGCTAGGACGGACGGT
DNA 2: ACCGTCCGTCCTAGCAAGCATTTTTTT
DNA 3: TCTGACTGCTGTCGGGCT
modifications: 3' Cy3 on B strand; internal fluorescein-dT at T10 of C strand
In the case of B4, the Kd in [10] was determined as 1.6 ± 0.2 µM; in data set [6], 5 ± 0.6 µM; in data set [9] it was 0.05 ± 0.01 µM; in [7], 1.8 ± 0.3 µM.
